In patent US20160200813A1:

How the values were obtained:
[1] = biological target: Mouse LRP-8 expressed on HEK293 cells (mouse) (UniProt Q924X6); assay: FACS, mouse LRP8 cells
[2] = biological target: CR1 cyclic peptide of human LRP-8 (human); assay: ELISA using CR1 peptide
[3] = biological target: Cynomolgus monkey LRP-8 expressed on HEK293 cells (cynomolgus monkey); assay: FACS, cyno LRP8 cells

FACS (ratio +/-) [1]: 1
OD450 [2]: 0.08 OD450
FACS (ratio +/-) [3]: 0.8
Substance: Negative IgG control (Table 20) (antibody)
